Measured values from IntAct's records for PubMed 26766587.

B1: N-myc proto-oncogene protein (Homo sapiens), P04198 (parent)
chain: MPSCSTSTMPGMICKNPDLEFDSLQPCFYPDEDDFYFGGPDSTPPGEDIWKKFELLPTPPLSPSRGFAEHSSEPPSWVTEMLLENELWGSPAEEDAFGLGGLGGLTPNPVILQDCMWSGFSAREKLERAVSEKLQHGRGPPTAGSTAQSPGAGAASPAGRGHGGAAGAGRAGAALPAELAHPAAECVDPAVVFPFPVNKREPAPVPAAPASAPAAGPAVASGAGIAAPAGAPGVAPPRPGGRQTSGGDHKALSTSGEDTLSDSDDEDDEEEDEEEEIDVVTVEKRRSSSNTKAVTTFTITVRPKNAALGPGRAQSSELILKRCLPIHQQHNYAAPSPYVESEDAPPQKKIKSEASPRPLKSVIPPKAKSLSPRNSDSEDSERRRNHNILERQRRNDLRSSFLTLRDHVPELVKNEKAAKVVILKKATEYVHSLQAEEHQLLLEKEKLQARQQQLLKKIEHARTC
partner: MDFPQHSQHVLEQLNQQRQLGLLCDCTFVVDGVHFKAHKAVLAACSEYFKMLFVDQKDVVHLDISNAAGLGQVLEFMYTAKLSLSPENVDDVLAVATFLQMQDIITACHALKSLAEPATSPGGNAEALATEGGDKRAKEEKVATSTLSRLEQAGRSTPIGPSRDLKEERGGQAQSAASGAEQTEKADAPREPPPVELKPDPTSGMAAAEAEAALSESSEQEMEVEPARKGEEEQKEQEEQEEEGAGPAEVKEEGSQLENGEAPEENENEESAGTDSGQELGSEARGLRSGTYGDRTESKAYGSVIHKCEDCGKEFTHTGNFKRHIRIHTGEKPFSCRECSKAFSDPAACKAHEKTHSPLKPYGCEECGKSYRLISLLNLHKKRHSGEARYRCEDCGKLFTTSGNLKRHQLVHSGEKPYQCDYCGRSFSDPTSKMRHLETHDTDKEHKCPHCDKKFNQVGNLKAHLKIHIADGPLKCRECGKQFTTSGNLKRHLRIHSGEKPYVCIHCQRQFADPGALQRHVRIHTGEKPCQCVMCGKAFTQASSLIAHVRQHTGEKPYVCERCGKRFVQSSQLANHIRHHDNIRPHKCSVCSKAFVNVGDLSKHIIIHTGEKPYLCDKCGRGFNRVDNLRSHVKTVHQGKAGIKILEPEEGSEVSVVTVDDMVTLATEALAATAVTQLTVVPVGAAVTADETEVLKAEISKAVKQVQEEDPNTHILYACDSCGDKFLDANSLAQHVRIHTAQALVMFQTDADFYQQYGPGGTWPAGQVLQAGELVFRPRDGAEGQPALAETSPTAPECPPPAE

Variants of: B1
Conditions: with zbt17_human ZBTB17, Q13105

Variant | effect of a mutation on the interaction
V421D | decreasing interaction strength
